We go through four molecules from patent publication US20200041497, “ANALYTE DETECTION METHOD” (IMPERIAL COLLEGE INNOVATIONS LIMITED, published 2020).

The target of data set [1] is T1, alpha-thrombin (Homo sapiens, UniProt P00734;P00734 P00734:328-363,P00734:364-622). In words: nanopore translocation on lambda-DNA carrier; 100 mM KCl, 10 mM Tris, 1 mM EDTA pH 8.
Data set [2] deals with acetylcholinesterase (AChE) (UniProt O42275 O42275:24-633). In words: EMSA; AChE 660 nM, modified aptamer 0-5000 nM; 2.7 mM KCl, 4 mM MgCl2 PBS pH 7.4, 1 h. As to conditions: tags: Sigma-Aldrich, UK; M.W. 280 kDa as stated; chain copies: 4; aptamer with extension hybridised to lambda-DNA 3' end. As to the method:
FIG. 20: Electrophoretic mobility shift assay (EMSA) to confirm the binding of the aptamers to thrombin and AChE targets. All gels shown above include a 25 bp ladder and indicated as M in the gel. (i) Thrombin (750 nM) was incubated with different concentration of modified TBA aptamer (top left) ranging from 0-5000 nM in 140 mM NaCl, 20 mM MgCl2, 20 mM PBS buffer pH 7.4 for 45 mins. The 7 lanes on the gel represent the following concentrations of aptamer (from left to right): 0, 50, 100, 250, 500, 1000 and 5000 nM. The samples were then loaded on a 10% native polyacrylamide cast gel and ran for 75 min at 80V and stained with SYBR gold and imaged under UV. […] (ii) modified TBA (200 nM) was then incubated with different concentration of thrombin in the same binding buffer as (i) for 45 min. The […] consist of different thrombin concentration from left to right: 0, 250, 500, 1000, 1500, 2500, 5000 and 7500 nM. The samples were then loaded to a 10% native polyacrylamide cast gels and ran for 75 min at 80V and stained with SYBR gold and imaged. (iii) AChE (660 nM) was incubated with different concentration of modified AChE aptamer ranging from 0-5000 nM in 2.7 mM KCl, 4 mM MgCl2 PBS buffer pH 7.4 for 1 hour. […]
A general note: A gel shift assay detects complexes by their altered migration in electrophoresis.

In data set [3] the target is T1, alpha-thrombin. The data set is described as follows: EMSA; 200 nM TBA, 0-500 nM thrombin; 50 mM Tris, 140 mM NaCl, 1 mM MgCl2 pH 7.4.

Sequence of acetylcholinesterase (AChE) (O42275 24-633, one chain of several): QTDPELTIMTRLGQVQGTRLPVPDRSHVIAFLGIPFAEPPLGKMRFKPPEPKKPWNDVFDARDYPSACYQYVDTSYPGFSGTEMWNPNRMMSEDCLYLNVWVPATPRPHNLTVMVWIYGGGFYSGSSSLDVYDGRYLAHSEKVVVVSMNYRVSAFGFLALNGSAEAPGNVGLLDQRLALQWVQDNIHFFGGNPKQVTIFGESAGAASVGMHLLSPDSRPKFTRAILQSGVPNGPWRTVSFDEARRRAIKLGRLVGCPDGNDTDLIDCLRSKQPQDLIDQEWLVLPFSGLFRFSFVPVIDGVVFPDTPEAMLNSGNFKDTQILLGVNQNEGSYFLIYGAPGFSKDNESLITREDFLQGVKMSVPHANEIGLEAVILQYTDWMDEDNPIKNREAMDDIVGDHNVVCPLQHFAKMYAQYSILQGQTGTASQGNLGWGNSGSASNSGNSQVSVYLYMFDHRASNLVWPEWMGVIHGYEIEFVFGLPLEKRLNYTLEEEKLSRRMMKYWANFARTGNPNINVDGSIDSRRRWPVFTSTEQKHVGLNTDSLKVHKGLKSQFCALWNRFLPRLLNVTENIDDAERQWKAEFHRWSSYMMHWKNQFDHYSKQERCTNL

B1: TBA detection probe iii (69-mer) (ssDNA)
DNA: GGTTGGTGTGGTTGGTTTTTTTTTGTCTTTTTTTTTTTTCTGTTTTTAAAAACTTACGCACGACACCTT
Consider B1, for which the binding result in the data set with alpha-thrombin [1] is on record as “binds”.

B2: AChE detection probe (75-mer) (ssDNA)
DNA: GGTTGACTGTAGCTCTGGCAGACGTAGTGTGAAGGTACCGGGCGGCGACCTAAGGTGTCGTGCGTAAGTTTTTAA
With B2, the binding result in data set [2] is listed as “binds”.
GGTTGGTGTGGTTGG (ssDNA) [TBA 15-mer]: the binding result with alpha-thrombin [3] is recorded as “binds”.

B3: TBA detection probe ii (51-mer) (ssDNA)
DNA: GGTTGGTGTGGTTGGGGGCGGCGACCTAAGGTGTCGTGCGTAAGTTTTTAA
In the case of B3, the binding result with alpha-thrombin [1] is given as “binds”.
